Biological target: T1, GIP receptor
T1 sequence (P48546 whole entry, species assumed, looked up): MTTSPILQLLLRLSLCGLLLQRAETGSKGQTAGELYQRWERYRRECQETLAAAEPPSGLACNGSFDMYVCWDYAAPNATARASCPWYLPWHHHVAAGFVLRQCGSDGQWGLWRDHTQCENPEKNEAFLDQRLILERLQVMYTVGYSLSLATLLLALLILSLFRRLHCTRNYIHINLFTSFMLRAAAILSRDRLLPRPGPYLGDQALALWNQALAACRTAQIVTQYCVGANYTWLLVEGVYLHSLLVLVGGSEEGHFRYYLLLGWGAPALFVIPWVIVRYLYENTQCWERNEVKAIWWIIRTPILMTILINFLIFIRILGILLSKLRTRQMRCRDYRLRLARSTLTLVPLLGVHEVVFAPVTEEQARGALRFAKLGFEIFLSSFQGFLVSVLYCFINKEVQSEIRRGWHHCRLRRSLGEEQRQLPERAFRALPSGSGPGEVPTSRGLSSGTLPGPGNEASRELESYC
Test: cell-based or functional assay

| Substance | cAMP experimental result of GIP receptor, EC50 |
| --- | --- |
| BG121 (LY3298176) (peptide) | 1.79 nM |
| BGM134 (Semaglutide) (peptide) | > 50 nM |
